B1: Cytochrome c-551, P00099 (parent)
chain: MKPYALLSLLATGTLLAQGAWAEDPEVLFKNKGCVACHAIDTKMVGPAYKDVAAKFAGQAGAEAELAQRIKNGSQGVWGPIPMPPNAVSDDEAQTLAKWVLSQK

Variants of: B1
Details: Pseudomonas aeruginosa (strain ATCC 15692 / DSM 22644 / CIP 104116 / JCM 14847 / LMG 12228 / 1C / PRS 101 / PAO1), pH 5, CD, structure 451C, whole UniProt chain shown

Variant | ddG of mutation (higher = less stable) (50.4 °C, Thermal, HCl 10 mM) [kcal/mol] | Tm (Thermal, HCl) [°C] | change of melting temperature, mutant - wild type (higher = more stable) (Thermal, HCl) [°C] | unfolding enthalpy (van 't Hoff) (Thermal, HCl) [kcal/mol] | ddG of mutation (higher = less stable) (25 °C, GdnHCl, HCl) [kcal/mol] | denaturant m value (25 °C, GdnHCl, HCl) [kcal/mol/M] | denaturant midpoint (higher = more stable) (25 °C, GdnHCl, HCl) [M]
MKPYALLSLLATGTLLAQGAWAEDPEVLFKNKGCVACHAIDTKMVGPAYKDVAAKYAGQAGAEAELAQRIKNGSQGVWGPIPMPPNAVSDDEAQTLAKWVLSQK | -1.9 | 66.4 | 16 | 61.2 |  |  | 
MKPYALLSLLATGTLLAQGAWAEDPEVLAKNKGCMACHAIDTKMVGPAYKDVAAKFAGQAGAEAELAQRIKNGSQGVWGPIPMPPNAVSDDEAQTLAKWVLSQK | -1.4 | 62.4 | 12 | 46.7 |  |  | 
MKPYALLSLLATGTLLAQGAWAEDPEVLFKNKGCVACHAIDTKMVGPAYKDVAAKFAGQAGAEAELAQRIKNGSQGVWGPIPMPPNAVSDDEAQTLAKWILSQK | -1 | 58.8 | 8.4 | 43.8 | -0.06 | 2.02 | 2.44
MKPYALLSLLATGTLLAQGAWAEDPEVLFKNKGCVACHAIDTKMVGPAYKDVAAKFAGRAGAEAELAQRIKNGSQGVWGPIPMPPNAVSDDEAQTLAKWVLSQK | -0.5 | 54.7 | 4.3 | 51.3 |  |  | 
MKPYALLSLLATGTLLAQGAWAEDPEVLAKNKGCVACHAIDTKMVGPAYKDVAAKFAGQAGAEAELAQRIKNGSQGVWGPIPMPPNAVSDDEAQTLAKWVLSQK | -1.1 | 59.9 | 9.5 | 48.2 |  |  | 
MKPYALLSLLATGTLLAQGAWAEDPEVLFKNKGCVACHAIDTKMVGPAYKDVAAKYAGRAGAEAELAQRIKNGSQGVWGPIPMPPNAVSDDEAQTLAKWVLSQK | -1.5 | 62.9 | 12.5 | 54.5 |  |  | 
MKPYALLSLLATGTLLAQGAWAEDPEVLFKNKGCVACHAIDTKMVGPAYKDVAAKYAGRAGAEAYLAQRIKNGSQGVWGPIPMPPNAVSDDEAQTLAKWVLSQK | -2 | 57.9 | 17.5 | 56.4 |  |  | 
MKPYALLSLLATGTLLAQGAWAEDPEVLFKNKGCMACHAIDTKMVGPAYKDVAAKFAGQAGAEAELAQRIKNGSQGVWGPIPMPPNAVSDDEAQTLAKWVLSQK | -0.4 | 53.6 | 3.2 | 43.8 |  |  | 
MKPYALLSLLATGTLLAQGAWAEDPEVLFKNKGCVACHAIDTKMVGPAYKDVAAKFAGQAGAEAYLAQRIKNGSQGVWGPIPMPPNAVSDDEAQTLAKWVLSQK | -0.6 | 55.5 | 5.1 | 57.4 |  |  | 
MKPYALLSLLATGTLLAQGAWAEDPEVLFKNKGCVACHAIDTKMVGPAYKDVAAKYAGQAGAEAYLAQRIKNGSQGVWGPIPMPPNAVSDDEAQTLAKWVLSQK | -2.4 | 70.7 | 20.3 | 63.7 |  |  | 
MKPYALLSLLATGTLLAQGAWAEDPEVLFKNKGCVACHAIDTKMVGPAYKDVAAKFAGRAGAEAYLAQRIKNGSQGVWGPIPMPPNAVSDDEAQTLAKWVLSQK | -0.5 | 54.7 | 4.3 | 46.2 |  |  | 
